In patent US20200095296A1, “USE OF PEPTIDES AS BIOMARKERS IN THE DIAGNOSIS, CONFIRMATION AND TREATMENT OF A NEUROLOGICAL DISORDER AND TCR AND/OR HLA IMMUNOPROFILING IN NEURODEGENERATIVE DISEASE” (THE TRUSTEES OF COLUMBIA UNIVERSITY IN THE CITY OF NEW YORK, priority 2017, published 2020) one finds IC50 data, which are given here for five substances.

The term IC50 denotes the concentration that inhibits the measured activity by half.

Targets include HLA DRB1*04:01 (human); HLA DRB1*04:05 (human); HLA DRB3*01:01 (human); HLA DRB1*09:01 (human); HLA DRB1*03:01 (human); HLA DRB1*11:01 (human).
Common to all, as to experiment: competition with radiolabeled peptide, purified HLA

Turning to “alpha-syn peptide aa126…aa140 phosphorylated at S129”, the IC50 with HLA DRB1*04:01 (human) amounted to 4.96 µM.

“alpha-syn peptide aa116…aa130 phosphorylated at S129” yielded an IC50 in the assay with HLA DRB1*04:05 (human) of 3.6 µM.

As for “alpha-syn peptide aa121…aa135 phosphorylated at S129”, the IC50 worked out at 9.13 µM with HLA DRB1*04:01 (human) and 9.18 µM with HLA DRB3*01:01 (human).

Consider alpha-syn peptide aa121…aa135, for which the IC50 with HLA DRB1*04:05 (human) amounted to 1.94 µM; in the assay with HLA DRB1*09:01 (human) it was 4.6 µM.

As to alpha-syn peptide aa116…aa130, the results for the IC50 in the assay with HLA DRB1*03:01 (human), with HLA DRB1*11:01 (human) and with HLA DRB3*01:01 (human) were 6.96 µM, 1.57 µM and 5.67 µM, respectively.
